The results in this text go back to patent publication US20140120095A1 (Boehringer Ingelheim, published 2014).

Assay [1] concerns the target T1, human DLL4, full length, overexpressed on cells (human, UniProt Q9NR61 27-685).
T1 construct: CHO cells in FMAT, HEK293 cells in the reporter assay; also called hDLL4; CHO-hDLL4
The assay is described as follows: FMAT, hNotch1-Fc on CHO-hDLL4, -HSA.

Assay [2] deals with T2, mouse DLL4, full length, overexpressed on CHO cells (mouse, UniProt Q9JI71 27-686).
T2 construct: whole, on cells; also called mDLL4; CHO-mDLL4
The assay is described as follows: FMAT, hNotch1-Fc on CHO-mDLL4, -HSA.

The target of assay [3] is T3, recombinant human VEGF165 (human, UniProt P15692-4 27-191, biotinylated in the competition assays).
T3 construct: Bought protein; also called hVEGF165; rhVEGF165
As to the kind of experiment: AlphaScreen, hVEGF165/hVEGFR1-Fc competition, -HSA. For orientation: Bead proximity is the source of the signal in Alpha formats.

The target in assay [4] is T3, recombinant human VEGF165. As to the kind of experiment: AlphaScreen, hVEGF165/hVEGFR2-Fc competition, -HSA.
For assay [5], the target named is T4, recombinant human DLL4 (human, UniProt Q9NR61 25-522).
T4 construct: also called rhDLL4; hDLL4
As to the kind of experiment: binding ELISA, coated rhDLL4. On the procedure:
(§1) In order to determine cross-reactivity to mouse DII4 a binding ELISA is performed. […] Wells are blocked with a casein solution (1% in PBS). VHHs are applied as dilution series and binding is detected using a mouse anti-myc (Roche) and an anti-mouse-AP conjugate (Sigma, St Louis, Mo., USA) (FIG. 7 A-H). As reference, binding to human DII4 is measured.
(In general: An ELISA detects its analyte on a solid surface through an enzyme-linked reagent.)

Assay [6] has as its target T5, recombinant mouse DLL4 (mouse, UniProt Q9JI71 27-532).
T5 construct: extracellular domain; also called rmDLL4; mDLL4
As to the kind of experiment: binding ELISA, coated rmDLL4. On the procedure:
as §1

The target in assay [7] is T6, human DLL4 overexpressed on cells (human, UniProt Q9NR61 27-685).
T6 construct: full length human DLL4 on CHO or HEK293 cells; also called CHO-hDLL4; CHO-hDII4
The assay is described as follows: competitive FMAT, hNotch1-Fc on CHO-hDLL4.

For assay [8], the target named is T7, mouse DLL4 overexpressed on cells (mouse, UniProt Q9JI71 27-686).
T7 construct: whole, on cells; also called CHO-mDLL4; CHO-mDII4
The assay is described as follows: competitive FMAT, hNotch1-Fc on CHO-mDLL4.

The target of assay [9] is T4, recombinant human DLL4. As to the kind of experiment: competition AlphaScreen, biot-hDLL4/hNotch1-Fc. On the procedure:
In brief, 1 nM biotinylated human DII4 is captured on streptavidin-coated donor beads (20 μg/mL), while 0.4 nM of the receptor human Notch1 (as a Fc fusion protein) is captured on anti-human Fc VHH-coated acceptor beads (20 μg/mL). Both loaded beads are incubated together with a dilution range of the competing VHH (FIG. 4 A-E).

Assay [10] addresses T4, recombinant human DLL4. As to the kind of experiment: SPR Biacore T100, hDLL4 on chip, VHH/Fab injected. On the procedure:
Kinetic analysis to determine the affinity of the DII4-VHH interaction is performed by Surface Plasmon Resonance (SPR) on a Biacore T100 instrument. […] Purified VHHs or Fab fragment are injected for 2 minutes at different concentrations (between 10 and 300 nM) and allowed to dissociate for 20 min at a flow rate of 45 μl/min. Between sample injections, the surfaces are regenerated with 10 mM glycine pH1.5 and 100 mM HCl. HBS-N (Hepes buffer pH7.4) is used as running buffer. If possible, data are evaluated by fitting a 1:1 interaction model (Langmuir binding) onto the binding curves. The affinity constant KD is calculated from resulting association and dissociation rate constants (kₐ) and […].
(Surface plasmon resonance follows binding to a sensor surface in real time, without labels.)

Assay [11] concerns the target T6, human DLL4 overexpressed on cells. The assay is described as follows: FACS titration on HEK293-hDLL4 cells, MCF. On the procedure:
(§2) In order to determine the cynomologus cross-reactivity of the VHHs, a FACS binding experiment is performed. Cynomolgus DII4 expressing HEK293 cells (transient or stable transfection) are used for a titration binding experiment of the VHHs. After a 30 minutes incubation on ice, all samples are washed and detection is performed by applying anti-c-myc˜Alexa647 (Santa Cruz Biotechnology, Santa Cruz, Calif., USA). Human and mouse DII4 overexpressing HEK293 cells are taken as reference. The mean MCF value is determined on the FACS Array and used for calculation of the EC₅₀ value (see FIG. 9 A-E).

Assay [12] concerns the target T8, cynomolgus DLL4 overexpressed on cells (cynomolgus, UniProt Q9NR61 27-685 (human entry)).
T8 construct: also called cyno DII4; cDLL4
T8 chain: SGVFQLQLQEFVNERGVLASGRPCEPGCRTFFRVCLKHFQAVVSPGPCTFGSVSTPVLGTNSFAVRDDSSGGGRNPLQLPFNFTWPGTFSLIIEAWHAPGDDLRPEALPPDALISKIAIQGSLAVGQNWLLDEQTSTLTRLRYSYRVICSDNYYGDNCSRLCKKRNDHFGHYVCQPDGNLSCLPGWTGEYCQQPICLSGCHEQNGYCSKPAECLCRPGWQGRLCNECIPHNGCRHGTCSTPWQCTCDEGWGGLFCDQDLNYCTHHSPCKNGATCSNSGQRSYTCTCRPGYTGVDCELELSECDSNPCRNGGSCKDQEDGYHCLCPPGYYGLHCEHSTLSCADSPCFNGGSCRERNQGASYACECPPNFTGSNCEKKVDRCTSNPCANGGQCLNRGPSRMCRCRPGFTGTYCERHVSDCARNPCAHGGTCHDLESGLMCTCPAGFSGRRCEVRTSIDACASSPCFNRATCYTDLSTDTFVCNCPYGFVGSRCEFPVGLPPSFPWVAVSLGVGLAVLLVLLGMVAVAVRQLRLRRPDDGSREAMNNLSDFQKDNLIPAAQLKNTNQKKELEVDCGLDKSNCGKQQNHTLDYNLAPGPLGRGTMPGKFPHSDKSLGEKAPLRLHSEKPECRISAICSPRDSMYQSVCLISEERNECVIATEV
The assay is described as follows: FACS titration on HEK293-cDLL4 cells, MCF. On the procedure:
as §2

Assay [13] deals with T4, recombinant human DLL4. The assay is described as follows: competition ELISA, biot-hDLL4 to coated hNotch1-Fc. An excerpt: Residual binding of biotinylated human DII4 is detected using horseradish peroxidase (HRP) conjugated extravidin (Sigma, St. Louis, Mo., USA) (FIG. 3 A-C). Human DII4 is biotinylated as described above.
Assay [14] deals with T9, human DLL1 (human, UniProt O00548 18-545, limits assumed).
T9 construct: also called hDLL1
T9 sequence (looked up): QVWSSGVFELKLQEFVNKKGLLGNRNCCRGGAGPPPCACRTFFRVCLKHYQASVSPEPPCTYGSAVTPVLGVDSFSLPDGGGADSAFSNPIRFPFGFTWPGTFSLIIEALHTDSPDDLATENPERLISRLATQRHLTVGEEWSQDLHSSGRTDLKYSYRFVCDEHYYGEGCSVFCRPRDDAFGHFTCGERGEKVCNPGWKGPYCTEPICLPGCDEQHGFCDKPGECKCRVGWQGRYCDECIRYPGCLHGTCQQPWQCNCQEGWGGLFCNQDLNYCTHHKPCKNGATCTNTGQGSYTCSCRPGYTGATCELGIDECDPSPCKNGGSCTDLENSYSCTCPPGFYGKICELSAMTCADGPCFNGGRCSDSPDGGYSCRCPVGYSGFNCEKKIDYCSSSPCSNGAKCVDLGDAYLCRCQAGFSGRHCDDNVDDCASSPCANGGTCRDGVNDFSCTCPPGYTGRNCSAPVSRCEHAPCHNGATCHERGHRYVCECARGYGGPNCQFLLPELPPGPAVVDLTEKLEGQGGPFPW
As to the kind of experiment: binding ELISA on coated recombinant human DLL1, OD 405 nm. On the procedure:
(§3) Absence of binding to homologous ligands human DLL1 and human Jagged-1 is assessed via solid phase binding assay (ELISA). In brief, human DLL1 (Alexis, San Diego, Calif., USA) and human Jagged-1 (Alexis, San Diego, Calif., USA) are coated overnight at 4° C. at 1 μg/mL in a 96-well MaxiSorp plate (Nunc, Wiesbaden, Germany). Wells are blocked with a casein solution (1% in PBS). VHHs are applied as dilution series and binding is detected using a mouse anti-myc (Roche) and an anti-mouse-AP conjugate (Sigma, St. Louis, Mo., USA).

Assay [15] deals with T10, human Jagged-1 (human, UniProt P78504 34-1067, limits assumed).
T10 construct: also called hJagged-1; hJAG1
As to the kind of experiment: binding ELISA on coated recombinant human Jagged-1, OD 405 nm. On the procedure:
as §3

T3 sequence (P15692 other isoform, or with tags, fused parts or gaps): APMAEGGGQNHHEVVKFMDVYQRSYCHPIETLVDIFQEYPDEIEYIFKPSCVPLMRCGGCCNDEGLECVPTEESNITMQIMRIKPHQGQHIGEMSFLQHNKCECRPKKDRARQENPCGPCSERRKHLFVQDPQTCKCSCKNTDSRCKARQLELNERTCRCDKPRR
T7 sequence (Q9JI71 27-686): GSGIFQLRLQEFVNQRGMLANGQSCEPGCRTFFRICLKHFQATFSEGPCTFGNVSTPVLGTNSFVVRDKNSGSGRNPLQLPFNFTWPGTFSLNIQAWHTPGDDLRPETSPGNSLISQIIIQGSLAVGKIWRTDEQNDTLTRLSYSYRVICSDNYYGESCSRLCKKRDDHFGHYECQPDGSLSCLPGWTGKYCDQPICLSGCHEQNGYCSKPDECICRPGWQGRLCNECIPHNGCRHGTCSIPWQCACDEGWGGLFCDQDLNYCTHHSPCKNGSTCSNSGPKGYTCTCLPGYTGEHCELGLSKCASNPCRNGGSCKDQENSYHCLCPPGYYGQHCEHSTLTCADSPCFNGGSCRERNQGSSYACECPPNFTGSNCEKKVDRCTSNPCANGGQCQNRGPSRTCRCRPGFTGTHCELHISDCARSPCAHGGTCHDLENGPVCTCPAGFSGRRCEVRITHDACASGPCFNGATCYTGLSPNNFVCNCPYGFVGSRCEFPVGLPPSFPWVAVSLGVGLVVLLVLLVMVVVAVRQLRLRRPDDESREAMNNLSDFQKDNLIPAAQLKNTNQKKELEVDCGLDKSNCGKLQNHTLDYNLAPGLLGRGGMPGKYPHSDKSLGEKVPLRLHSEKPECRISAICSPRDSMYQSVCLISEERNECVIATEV
T5 sequence (Q9JI71 27-532): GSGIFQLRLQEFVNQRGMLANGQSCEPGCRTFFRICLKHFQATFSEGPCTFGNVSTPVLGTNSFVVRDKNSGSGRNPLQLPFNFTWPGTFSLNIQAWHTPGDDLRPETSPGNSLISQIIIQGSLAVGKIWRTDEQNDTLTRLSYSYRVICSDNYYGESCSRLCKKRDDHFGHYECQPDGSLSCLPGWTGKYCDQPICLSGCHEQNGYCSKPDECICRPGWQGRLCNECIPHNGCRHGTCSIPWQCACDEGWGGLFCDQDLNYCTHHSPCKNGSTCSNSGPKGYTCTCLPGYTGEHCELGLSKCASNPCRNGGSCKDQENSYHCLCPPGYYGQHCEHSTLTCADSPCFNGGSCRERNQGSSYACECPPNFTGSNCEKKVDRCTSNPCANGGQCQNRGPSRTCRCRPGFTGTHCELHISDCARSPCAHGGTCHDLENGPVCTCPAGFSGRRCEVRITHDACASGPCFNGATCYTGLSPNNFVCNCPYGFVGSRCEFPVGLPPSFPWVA

B1: A1 (bispecific antibody)
chain: VQLVESGGGLVQPGGSLRLSCAASGRTFSSYSMGWFRQAPGKEREFVVAISKGGYKYDAVSLEGRFTISRDNAKNTVYLQINSLRPEDTAVYYCASSRAYGSSRLRLADTYEYWGQGTLVTVSSGGGGSGGGGSGGGGCGGGGSGGGGSGGGGSGGGGSEVQLVESGGGLVQPGGSLRLSCAASGRTFSSYAMAWYRQAPGKEREYVAAIRWSGGTAYYADSVKGRFTISRDNAKNTVYLQMNSLRPEDTAVYYCANRAPDTRLAPYEYDHWGQGTLVTVSS
modifications: PEGylated at the Cys at position 15 of the 35 Gly-Ser linker
notes: VEGFBII038 (N-terminal E missing) - 35GS(Cys15) - DLLBII018
What is called IC50 is the point on the concentration scale where inhibition reaches its midpoint. On to B1, for which the “% inh” value came out at 102% in [1], 100% in assay [2], 80% in [3] and 100% in assay [4]. Further, the IC50 in [1] was determined as 6.7 nM; in assay [2] it was 3.4 nM; in assay [3], 0.1 nM; in [4], 0.07 nM.

B2: DLLBII039 (VHH)
VHH: EVQLVESGGGLVQPGGSLRLSCAASGFTIGSYDMSWVRRAPGKGPEWVSSISSGGGSTYYADYVKGRFTISRDNAKNTLYLQMNSLRPEDTAVYYCAADRYIWARQGEYWGAYEYDYWGQGTLVTVSS
On to B2, for which, in [1], the “% inh” value was found to be 102% and it took 3.6 nM to reach half-maximal inhibition (IC50). Besides, in assay [2], the “% inh” value is 100% and the 50% inhibitory concentration (IC50) is 6.7 nM.

B3: DLLBII56C04 (VHH)
VHH: EVQLVESGGGLVQPGGSLRLSCTASGFTFDVYAIGWFRQAPGKEPEGISCISSSGSITYYADSVKGRFTTSRDSAKNTVYLQMNSLKPEDTAVYYCATPGIAACRGIHYWGQGTQVTVSS
In general, EC50 refers to the concentration needed to bring the measured effect to its halfway point. In general, Kd refers to the equilibrium constant for the complex coming apart. For orientation: koff means the rate constant with which the complex falls apart. A word on the kon: it is the rate constant with which the complex forms. One may read the EC50 (read off the curve) as the midpoint of the concentration-response curve. Low values mean greater potency, high ones weaker potency. On to B3, for which the EC50 in [5] is 44.3 nM; in assay [6] it was 244 nM. The concentration for half-maximal inhibition (IC50) in assay [7] was 28.7 nM; in assay [8] it was 49.6 nM; in assay [9] it was 5.4 nM; in assay [13], 33.9 nM. Moreover, the Kd in assay [10] worked out at 45 nM. Besides, the koff in [10] was 0.0049 s⁻¹. The kon in assay [10] was 110000 M⁻¹ s⁻¹. In addition, the “EC50 (read off the curve)” value in [11] and in assay [12] was ~6 nM each time. Besides, the binding result in [14] and in assay [15] was “no binding (tested: 2.5e-7 M)” throughout.

B4: DLLBII57C11 (VHH)
VHH: EVQLVESGGGLVQPGGSLRLSCTASGFTFDDYAIGWFRQAPGKEPEGISCISSSGSITYDADSVKGRFTISRDNAKNTVYLQMNSLKPEDTAVYYCATPGIAACRGIHYWGQGTQVTVSS
Turning to B4, the EC50 in assay [5] worked out at 7.9 nM; in assay [6], 83.4 nM. Besides, the IC50 turned out to be 53.9 nM in assay [7], 49.5 nM in [8], 2.2 nM in [9] and 17.3 nM in [13]. For the same molecule, the concentration for a half-maximal effect (EC50 (read off the curve)) in assay [11] and in assay [12] was ~10 nM throughout. For the same molecule, the binding result in assay [14] and in assay [15] was “no binding (tested: 2.5e-7 M)” throughout.

B5: A3 (bispecific antibody)
chain: VQLVESGGGLVQPGGSLRLSCAASGRTFSSYSMGWFRQAPGKEREFVVAISKGGYKYDAVSLEGRFTISRDNAKNTVYLQINSLRPEDTAVYYCASSRAYGSSRLRLADTYEYWGQGTLVTVSSGGGGSGGGGSGGGGCGGGGSGGGGSGGGGSGGGGSEVQLVESGGGLVQPGGSLRLSCAASGIRFISMAWYRQAPGKQRELVARISSGGTTAYADSVKGRFTISRDNSKNTVYLQMNSLRAEDTAVYYCNTFSSRPNPWGQGTLVTVSSGGGGSGGGGSGGGGSGGGGSGGGGSGGGGSGGGGSEVQLVESGGGLVQPGGSLRLSCAASGRTFSSYAMAWYRQAPGKEREYVAAIRWSGGTAYYADSVKGRFTISRDNAKNTVYLQMNSLRPEDTAVYYCANRAPDTRLAPYEYDHWGQGTLVTVSS
modifications: PEGylated at the Cys at position 15 of the 35 Gly-Ser linker
notes: VEGFBII038 - 35GS(Cys15) - VEGFBII032 - 35GS - DLLBII018
With B5, the “% inh” value in [1] turned out to be 97%; in assay [2], 95%; in [3], 97%; in assay [4], 100%. The concentration for half-maximal inhibition (IC50) amounted to 16.1 nM in assay [1], 7.9 nM in [2], 0.02 nM in assay [3] and 0.01 nM in assay [4].
